# Measured values published in patent US20040224337.
# Key:
# FAS = FAS (UniProt P25445)
# [1] = system: FASpTyr275 peptide (Biotin-KKEAY(PO3)DTLI-COOH)
# Sequence of UniProt P25445 (P25445 26-335): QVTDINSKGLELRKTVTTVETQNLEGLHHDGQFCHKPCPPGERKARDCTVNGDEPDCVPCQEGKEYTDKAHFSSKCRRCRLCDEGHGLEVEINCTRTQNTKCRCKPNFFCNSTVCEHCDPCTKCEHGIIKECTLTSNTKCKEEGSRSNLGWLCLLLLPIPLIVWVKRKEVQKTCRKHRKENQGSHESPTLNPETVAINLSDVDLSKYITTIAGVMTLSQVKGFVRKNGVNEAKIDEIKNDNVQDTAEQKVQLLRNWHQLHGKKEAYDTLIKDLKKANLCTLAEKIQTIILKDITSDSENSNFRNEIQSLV
substance,measurement,setting,value
PTPL1/FAP-1,tyrosine phosphorylation of immunoprecipitated FAS (PY20-HRP blot after incubation in phosphatase reaction buffer),FAS,endogenous FAP-1 dephosphorylates FAS
same,in vitro phosphatase assay (dephosphorylation relative to vector as percent activity),[1],FAP-1 immunoprecipitated from overexpressing cells dephosphorylates the biotinylated phospho-peptide (FASpY275) in an in vitro phosphatase assay
